The results in this text go back to paper PMC4822050, “Hemi-methylated DNA opens a closed conformation of UHRF1 to facilitate its histone recognition” (Nature Communications, 2016).

The labels stand for the following.
B12: TTD of UHRF1 (residues 134–285) (domain or fragment, human, UniProt Q96T88 134-285, looked up)
chain: LYKVNEYVDARDTNMGAWFEAQVVRVTRKAPSRDEPCSSTSRPALEEDVIYHVKYDDYPENGVVQMNSRDVRARARTIIKWQDLEVGQVVMLNYNPDNPKERGFWYDAEISRKRETRTARELYANVVLGDDSLNDCRIIFVDEVFKIERPGE
notes: 15N- or 13C/15N-labelled for the NMR work; also called tandem Tudor domain; the isolated TTD

“And” between values parts separate entries of the source, which are not always exact repeats. Identical values can stand only once.

What all share (conditions): both partners purified
The target in assay [1] is T1, SRA of UHRF1 (residues 414–617) (human, UniProt Q96T88 414-617).
T1 construct: human UHRF1, SRA domain, residues 414–617; also called SET-and-RING-associated domain
T1 sequence (looked up): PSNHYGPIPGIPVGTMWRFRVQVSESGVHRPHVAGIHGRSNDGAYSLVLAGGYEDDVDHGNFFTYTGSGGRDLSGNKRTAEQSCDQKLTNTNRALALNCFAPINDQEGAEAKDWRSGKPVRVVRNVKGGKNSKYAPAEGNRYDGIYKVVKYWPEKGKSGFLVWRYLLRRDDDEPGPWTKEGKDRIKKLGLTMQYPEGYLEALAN
As to the kind of experiment: ITC; 0.05 mM protein in the cell, 0.5 mM protein or peptide in the syringe, iTC200, 18 °C, 10 mM HEPES pH 8.0, 100 mM NaCl. In general terms: ITC needs no label: the signal is the heat of the interaction.

The target of assay [2] is T2, SRA–Spacer of UHRF1 (residues 414–674) (human, UniProt Q96T88 414-674).
T2 sequence (looked up): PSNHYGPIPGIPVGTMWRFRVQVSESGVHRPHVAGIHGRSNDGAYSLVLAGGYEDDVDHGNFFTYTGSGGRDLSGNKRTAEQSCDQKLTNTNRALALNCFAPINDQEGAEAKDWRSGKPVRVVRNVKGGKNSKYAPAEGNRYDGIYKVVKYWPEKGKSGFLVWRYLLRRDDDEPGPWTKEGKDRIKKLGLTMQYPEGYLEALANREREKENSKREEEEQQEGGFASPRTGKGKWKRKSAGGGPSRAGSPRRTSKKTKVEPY
As to the kind of experiment: pull-down; GST pull-down: 15 μg GST-tagged protein with 40 μg recombinant protein in 500 μl 20 mM HEPES-NaOH pH 8.0, 100 mM NaCl, 5% glycerol, 0.1% Triton X-100, 4 °C, glutathione resin, Coomassie staining; some panels with increasing hm-DNA.

The target of assay [3] is B12. As to the kind of experiment: ITC; 0.05 mM protein in the cell, 0.5 mM protein or peptide in the syringe, iTC200, 18 °C, 10 mM HEPES pH 8.0, 100 mM NaCl.
Assay [4] has as its target B12. As to the kind of experiment: NMR solution structure; TTD/Spacer (627–674) 1:1.2, PBS, 0.01% NaN3, pH 7.4, 10% D2O, 20 °C.
For assay [5], the target named is T3, TTD–PHD of UHRF1 (residues 134–366) (human, UniProt Q96T88 134-366).
T3 sequence (looked up): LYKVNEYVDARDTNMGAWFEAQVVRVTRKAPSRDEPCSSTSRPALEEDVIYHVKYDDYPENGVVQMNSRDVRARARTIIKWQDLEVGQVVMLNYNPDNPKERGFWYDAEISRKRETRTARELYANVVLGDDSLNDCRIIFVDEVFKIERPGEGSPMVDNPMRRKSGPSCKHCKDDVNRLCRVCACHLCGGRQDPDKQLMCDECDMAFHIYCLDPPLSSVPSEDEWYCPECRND
The experiment in a line: ITC; 0.05 mM protein in the cell, 0.5 mM protein or peptide in the syringe, iTC200, 18 °C, 10 mM HEPES pH 8.0, 100 mM NaCl.

The target of another assay is T4, TTD–PHD R295D/R296D (human, UniProt Q96T88 134-366, R295D | R296D).
T4 sequence (looked up): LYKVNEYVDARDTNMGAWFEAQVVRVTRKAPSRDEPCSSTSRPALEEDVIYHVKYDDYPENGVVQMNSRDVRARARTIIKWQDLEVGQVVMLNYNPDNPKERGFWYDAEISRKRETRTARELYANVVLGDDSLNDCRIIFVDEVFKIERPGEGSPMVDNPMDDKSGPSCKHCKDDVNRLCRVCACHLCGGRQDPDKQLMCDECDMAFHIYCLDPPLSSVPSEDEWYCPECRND
Described as above.

Assay [6] concerns the target B12. The experiment in a line: ITC; competition ITC: protein pre-incubated with the competing peptide or protein (1:2 molar ratio if not specified) for 10 min, then as a3.
Assay [7] has as its target T2, SRA–Spacer of UHRF1 (residues 414–674). As to the kind of experiment: ITC; 0.05 mM protein in the cell, 0.5 mM protein or peptide in the syringe, iTC200, 18 °C, 10 mM HEPES pH 8.0, 100 mM NaCl.

B1: PHD of UHRF1 (residues 307–366) (domain or fragment, human, UniProt Q96T88 307-366, looked up)
chain: DDVNRLCRVCACHLCGGRQDPDKQLMCDECDMAFHIYCLDPPLSSVPSEDEWYCPECRND
notes: human UHRF1, PHD, residues 307–366; also called plant homeodomain; the isolated PHD
For the molecule B1, the Kd in assay [1] amounted to 26.7 µM. This counts as double-digit micromolar.

B2: GST-tagged TTD–PHD of UHRF1 (domain or fragment, human, UniProt Q96T88 134-366, looked up)
chain: LYKVNEYVDARDTNMGAWFEAQVVRVTRKAPSRDEPCSSTSRPALEEDVIYHVKYDDYPENGVVQMNSRDVRARARTIIKWQDLEVGQVVMLNYNPDNPKERGFWYDAEISRKRETRTARELYANVVLGDDSLNDCRIIFVDEVFKIERPGEGSPMVDNPMRRKSGPSCKHCKDDVNRLCRVCACHLCGGRQDPDKQLMCDECDMAFHIYCLDPPLSSVPSEDEWYCPECRND
notes: also called GST-TTD–PHD
As for B2, the binding result in assay [2] is “binds”.

B3: Spacer^Δ642–651 (domain or fragment, human, UniProt Q96T88 587-674, looked up)
chain: PGPWTKEGKDRIKKLGLTMQYPEGYLEALANREREKENSKREEEEQQEGGFASPRAGGGPSRAGSPRRTSKKTKVEPY
B3: the binding result in assay [3] is reported as “binds”.

B4: truncated Spacer (residues 627–674) (domain or fragment, human, UniProt Q96T88 627-674, looked up)
chain: REEEEQQEGGFASPRTGKGKWKRKSAGGGPSRAGSPRRTSKKTKVEPY
notes: modified pRSF-Duet-1 vector; unlabelled or 15N-labelled in the NMR samples; residues 643–655 were built in the model
B4: the binding result in assay [4] is “binds”.

In turn, MVDNPMRRKSGPSCKHCK (peptide, UniProt Q96T88 289-306, looked up, also called the Linker) [Linker peptide (289–306)] showed a dissociation constant (Kd) in assay [3] of 24 µM.

In the case of TGKGKWKRKSAGGGPSRAGSPRRTSKKTKVEPY (domain or fragment, human, UniProt Q96T88 642-674, looked up) [Spacer^642–674], the binding result in assay [3] is “binds”.

B5: Spacer of UHRF1 (residues 587–674) (domain or fragment, human, UniProt Q96T88 587-674, looked up)
chain: PGPWTKEGKDRIKKLGLTMQYPEGYLEALANREREKENSKREEEEQQEGGFASPRTGKGKWKRKSAGGGPSRAGSPRRTSKKTKVEPY
notes: also called the Spacer; Spacer peptide
For the molecule B5, the Kd in assay [5] was 10.7 µM; in the assay with TTD–PHD R295D/R296D, 2.69 µM; in assay [3] it was 1.48 µM and 1.59 µM. In addition, the “stoichiometry N” value in assay [3] was determined as 1. Further, in assay [6], the “fold decrease in binding affinity in the presence of the Linker” value came to 2 fold.

B6: Spacer R649A (domain or fragment, human, UniProt Q96T88 587-674, looked up)
chain: PGPWTKEGKDRIKKLGLTMQYPEGYLEALANREREKENSKREEEEQQEGGFASPRTGKGKWKAKSAGGGPSRAGSPRRTSKKTKVEPY
Consider B6, for which the “fold decrease in binding affinity against the wild-type Spacer” value in assay [3] was about 13 fold.

B7: Spacer S639D (domain or fragment, human, UniProt Q96T88 587-674, looked up)
chain: PGPWTKEGKDRIKKLGLTMQYPEGYLEALANREREKENSKREEEEQQEGGFADPRTGKGKWKRKSAGGGPSRAGSPRRTSKKTKVEPY
On to B7, for which the binding result in assay [3] is given as “binds”.

B8: Spacer K648D (domain or fragment, human, UniProt Q96T88 587-674, looked up)
chain: PGPWTKEGKDRIKKLGLTMQYPEGYLEALANREREKENSKREEEEQQEGGFASPRTGKGKWDRKSAGGGPSRAGSPRRTSKKTKVEPY
As for B8, in assay [3], the binding result is given as “binds”.

B9: Spacer S651D (domain or fragment, human, UniProt Q96T88 587-674, looked up)
chain: PGPWTKEGKDRIKKLGLTMQYPEGYLEALANREREKENSKREEEEQQEGGFASPRTGKGKWKRKDAGGGPSRAGSPRRTSKKTKVEPY
For the molecule B9, the binding result in assay [3] is “binds”.

B10: Spacer S666D (domain or fragment, human, UniProt Q96T88 587-674, looked up)
chain: PGPWTKEGKDRIKKLGLTMQYPEGYLEALANREREKENSKREEEEQQEGGFASPRTGKGKWKRKSAGGGPSRAGSPRRTDKKTKVEPY
For the molecule B10, the binding result in assay [3] is “binds”.

B11: replication focus targeting sequence (RFTS) of DNMT1 (domain or fragment, UniProt P26358 400-533, looked up)
chain: EALPQHKLTCFSVYCKHGHLCPIDTGLIEKNIELFFSGSAKPIYDDDPSLEGGVNGKNLGPINEWWITGFDGGEKALIGFSTSFAEYILMDPSPEYAPIFGLMQEKIYISKIVVEFLQSNSDSTYEDLINKIET
notes: DNMT1, RFTS domain; also called RFTS^DNMT1
In turn, B11 displayed an equilibrium dissociation constant (Kd) in assay [7] of 7.09 µM. TGKGKWKRKSAGGGPSRAGSPRR (peptide, UniProt Q96T88 642-664, looked up) [unmodified peptide of Spacer^642–664]: the binding result in assay [3] is on record as “binds”. In the case of B12, in assay [7], the binding result was “binds”.

B13: GST-tagged TTD of UHRF1 (domain or fragment, human, UniProt Q96T88 134-285, looked up)
chain: LYKVNEYVDARDTNMGAWFEAQVVRVTRKAPSRDEPCSSTSRPALEEDVIYHVKYDDYPENGVVQMNSRDVRARARTIIKWQDLEVGQVVMLNYNPDNPKERGFWYDAEISRKRETRTARELYANVVLGDDSLNDCRIIFVDEVFKIERPGE
notes: pGEX-6p-1 derivative vector; also called GST-TTD
On to B13, for which the binding result in assay [2] was “binds”.

B14: Spacer^Δ660–664 (domain or fragment, human, UniProt Q96T88 587-674, looked up)
chain: PGPWTKEGKDRIKKLGLTMQYPEGYLEALANREREKENSKREEEEQQEGGFASPRTGKGKWKRKSAGGGPSRATSKKTKVEPY
Turning to B14, in assay [3], the binding result was “binds”.

B15: Spacer^Δ650–654 (domain or fragment, human, UniProt Q96T88 587-674, looked up)
chain: PGPWTKEGKDRIKKLGLTMQYPEGYLEALANREREKENSKREEEEQQEGGFASPRTGKGKWKRGPSRAGSPRRTSKKTKVEPY
Consider B15, for which, in assay [3], the binding result is “binds”.

B16: Spacer^Δ655–659 (domain or fragment, human, UniProt Q96T88 587-674, looked up)
chain: PGPWTKEGKDRIKKLGLTMQYPEGYLEALANREREKENSKREEEEQQEGGFASPRTGKGKWKRKSAGGGSPRRTSKKTKVEPY
Regarding B16, the binding result in assay [3] is listed as “binds”.

B17: Spacer^Δ670–674 (domain or fragment, human, UniProt Q96T88 587-674, looked up)
chain: PGPWTKEGKDRIKKLGLTMQYPEGYLEALANREREKENSKREEEEQQEGGFASPRTGKGKWKRKSAGGGPSRAGSPRRTSKKT
Regarding B17, the binding result in assay [3] is given as “binds”.

B18: Spacer^Δ665–669 (domain or fragment, human, UniProt Q96T88 587-674, looked up)
chain: PGPWTKEGKDRIKKLGLTMQYPEGYLEALANREREKENSKREEEEQQEGGFASPRTGKGKWKRKSAGGGPSRAGSPRRKVEPY
For B18, the binding result in assay [3] is on record as “binds”.

A word on the Kd: it is the free concentration of one partner at which half of the binding sites on the other are occupied at equilibrium, for simple one-to-one binding. A word on the stoichiometry N: it is the number of molecules, sites or subunits per partner or assembly.
